The target of test [1] is NY-ESO peptide on HLA-A*02:01 (human). In words: data from [41,42]; reprinted in Table 1.
Test [2] deals with NY-ESO, mutated peptide ESO4D (4D, 9V) peptide on HLA-A*02:01 (human). Kind of test: data from [41,42]; reprinted in Table 1.
Test [3] has as its target NY-ESO peptide on HLA-A*02:01 (human). In words: data from [41,42]; experimental binding affinity data reprinted in Table 1.

Usually koff stands for a measure of how fast the partners let go of each other. Low readings indicate slow dissociation, high ones fast dissociation. Usually kon stands for the rate constant with which the complex forms. Low values mean slow association, high ones fast association. A word on the Kd: it is the free concentration of one partner at which half of the binding sites on the other are occupied at equilibrium, for simple one-to-one binding. In test [1], 1G4 returned a koff of 0.82 s⁻¹, a kon of 57000 M⁻¹ s⁻¹ and a t1/2 of 0.84 s. Also, in test [2], the Kd is 252 µM, the koff worked out at 2.59 s⁻¹, the kon was found to be 10000 M⁻¹ s⁻¹ and the t1/2 came to 0.27 s. The Kd in test [3] was found to be 14 µM.
